Assay results: patent US20240376225A1 (CHILDREN S MEDICAL CENTER, published 2024)

Key:
[1] = target: T1, human CD21 protein (human, UniProt P20023 21-971, limits assumed); experiment: SPR (Biacore)
T1 construct: the Biacore set-up is not described; also called huCD21; CR2
T1 sequence (looked up): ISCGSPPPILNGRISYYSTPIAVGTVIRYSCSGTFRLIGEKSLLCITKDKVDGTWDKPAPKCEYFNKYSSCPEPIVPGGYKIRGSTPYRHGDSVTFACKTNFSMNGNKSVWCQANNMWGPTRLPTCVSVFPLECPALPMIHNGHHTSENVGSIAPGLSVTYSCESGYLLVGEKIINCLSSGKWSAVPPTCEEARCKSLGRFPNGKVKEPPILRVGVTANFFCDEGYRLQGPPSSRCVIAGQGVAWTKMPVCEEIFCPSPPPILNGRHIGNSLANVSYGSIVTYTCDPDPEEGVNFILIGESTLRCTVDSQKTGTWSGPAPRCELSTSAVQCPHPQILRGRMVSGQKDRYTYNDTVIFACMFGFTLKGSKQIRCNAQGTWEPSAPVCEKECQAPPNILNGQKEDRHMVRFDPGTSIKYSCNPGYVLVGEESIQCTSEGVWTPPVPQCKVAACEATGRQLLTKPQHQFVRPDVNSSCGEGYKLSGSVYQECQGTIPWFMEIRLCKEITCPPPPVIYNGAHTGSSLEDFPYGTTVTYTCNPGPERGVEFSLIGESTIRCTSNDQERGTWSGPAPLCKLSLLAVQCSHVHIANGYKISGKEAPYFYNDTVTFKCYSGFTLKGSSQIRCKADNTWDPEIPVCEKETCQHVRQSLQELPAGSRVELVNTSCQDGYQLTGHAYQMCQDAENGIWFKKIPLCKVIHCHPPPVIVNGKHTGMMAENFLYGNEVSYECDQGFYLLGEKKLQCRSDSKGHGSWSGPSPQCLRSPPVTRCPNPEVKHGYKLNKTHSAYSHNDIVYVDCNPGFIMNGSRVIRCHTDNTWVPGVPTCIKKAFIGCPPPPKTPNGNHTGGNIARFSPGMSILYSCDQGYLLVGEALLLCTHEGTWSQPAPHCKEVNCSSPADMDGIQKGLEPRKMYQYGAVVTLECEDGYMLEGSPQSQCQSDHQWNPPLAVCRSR

[2] = target: T2, cyno CD21 on CHO cells (cynomolgus monkey, UniProt A0A2K5URG6 21-1034); experiment: flow cytometry, Ab15 titrated on CHO cells overexpressing cyno CD21, anti-human IgG-PE, Geo MFI
T2 construct: whole, on cells; also called CHO-cyno CD21 cells; CHO-cynoCD21
T2 sequence: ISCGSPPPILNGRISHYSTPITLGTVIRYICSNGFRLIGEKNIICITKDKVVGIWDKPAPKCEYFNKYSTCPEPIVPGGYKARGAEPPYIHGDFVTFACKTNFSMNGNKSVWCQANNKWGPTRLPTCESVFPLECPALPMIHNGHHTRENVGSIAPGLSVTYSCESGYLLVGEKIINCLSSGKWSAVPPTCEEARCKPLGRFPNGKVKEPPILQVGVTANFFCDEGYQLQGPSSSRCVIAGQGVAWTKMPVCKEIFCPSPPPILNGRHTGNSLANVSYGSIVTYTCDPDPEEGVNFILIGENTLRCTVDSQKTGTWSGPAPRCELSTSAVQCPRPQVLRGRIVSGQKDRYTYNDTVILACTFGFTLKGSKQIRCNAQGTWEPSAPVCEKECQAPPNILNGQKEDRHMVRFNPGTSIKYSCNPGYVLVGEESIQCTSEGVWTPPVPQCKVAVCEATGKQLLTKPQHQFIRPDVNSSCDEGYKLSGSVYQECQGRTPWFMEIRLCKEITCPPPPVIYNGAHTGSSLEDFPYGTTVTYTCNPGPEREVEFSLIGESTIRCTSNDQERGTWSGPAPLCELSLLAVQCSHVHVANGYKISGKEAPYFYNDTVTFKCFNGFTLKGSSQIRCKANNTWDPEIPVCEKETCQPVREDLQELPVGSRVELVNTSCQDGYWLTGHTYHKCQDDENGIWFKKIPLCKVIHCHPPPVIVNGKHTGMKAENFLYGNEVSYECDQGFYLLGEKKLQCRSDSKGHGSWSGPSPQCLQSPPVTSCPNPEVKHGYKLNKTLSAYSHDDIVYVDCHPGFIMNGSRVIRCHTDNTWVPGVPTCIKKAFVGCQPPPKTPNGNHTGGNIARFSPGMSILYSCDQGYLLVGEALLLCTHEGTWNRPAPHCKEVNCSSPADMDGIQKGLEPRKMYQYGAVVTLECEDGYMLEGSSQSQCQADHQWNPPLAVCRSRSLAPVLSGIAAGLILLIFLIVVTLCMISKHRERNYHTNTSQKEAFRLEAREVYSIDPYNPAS
Protocol: Ab15 binding to cell-surface human and cyno CD21 was determined using human Raji B cells (ATCC, Manassas, VA) and CHO cells over expressing cyno CD21. Cells expressing cyno CD21 were generated by transfecting CHO cells with a mammalian expression construct encoding full-length cyno CD21. Stable cell clones were selected on hygromycin-B, and their expression of cyno CD21 confirmed by flow cytometry.
For the Ab15 binding experiment, cells were dissociated with cell dissociation buffer (Sigma) and blocked on ice with PBS+3% bovine serum (BS)+human Fc blocker. Cells were stained on ice for 1 hr with 3-fold serially diluted Ab15 (starting from 50 nM), then washed with cold PBS. Secondary antibody (anti-human IgG-PE, 1:500 dilution, Invitrogen, cat. #H10104) was added on ice for 1 hr. Cells were washed with and resuspended in PBS, and analyzed for Ab15 binding on a BD Fortessa instrument.

Kd [1]: 15.6 nM | EC50 [2]: 0.05 nM
B1: Ab15 (antibody, human IgG1, kappa, V domains shown)
VH: QVQLVQSGAEVKKPGSSVKVSCKASGGTFSSYAISWVRQAPGQGLEWMGRIIPILGIANYAQKFQGRVTITADKSTSTAYMELSSLRSEDTAVYYCAREDDSSGYYQDWGQGTLVTVSS
VL: EIVMTQSPATLSLSPGESATLSCRAGQSINSHLAWYQQKPGQSPSLLIYDASTRATGVPARFSGSGFGTEFTLTISSLQSEDFAVYFCQQYEYWYTFGQGTKLEIKR
notes: Tb-labeled in the HTRF assay; also called 36C01; SC38-36C01 (IgG1 version)
